Results taken from paper PMC12591035, “Bni5 regulates and coordinates septin architecture and myosin-II functions at the cell division site” (The Journal of Cell Biology, 2025).
One block for each binder: values may come before it.

Tests used:
Conditions in all cases: both partners purified
[1] = target: T1, 4-septin complexes/filaments (Cdc11-Cdc12[His6]-Cdc3-Cdc10-Cdc10-Cdc3-Cdc12[His6]-Cdc11) (S. cerevisiae, UniProt P32458 1-415; P32468 1-407; P32457 1-520; P25342 1-322); test: co-sedimentation; 1.5 μg eluted GST fusion with 1.5 μg concentrated 4-septin or 5-septin complexes/filaments; 50 mM NaCl, 2 mM MgCl2, 15 mM imidazole, 12% glycerol, 50 mM Tris-HCl pH 7.5; 1 h at room temperature; 100,000 x g for 1 h at 4°C; pellet on Coomassie gel and anti-GST blot
T1 construct: Cdc11, S. cerevisiae septin, terminal subunit of the octamer; Cdc12, S. cerevisiae septin; Cdc3, S. cerevisiae septin; Cdc10, S. cerevisiae septin, core subunit; Octamers polymerised into filaments; copies are those of one octamer; The plasmids are from Versele et al., 2004; also called septin filaments made of Cdc11-capped octamers (four septins); four-septin complexes; source: E. coli …
T1 sequence (P32458 whole entry, chain 1 of 4, the tested form may be a part): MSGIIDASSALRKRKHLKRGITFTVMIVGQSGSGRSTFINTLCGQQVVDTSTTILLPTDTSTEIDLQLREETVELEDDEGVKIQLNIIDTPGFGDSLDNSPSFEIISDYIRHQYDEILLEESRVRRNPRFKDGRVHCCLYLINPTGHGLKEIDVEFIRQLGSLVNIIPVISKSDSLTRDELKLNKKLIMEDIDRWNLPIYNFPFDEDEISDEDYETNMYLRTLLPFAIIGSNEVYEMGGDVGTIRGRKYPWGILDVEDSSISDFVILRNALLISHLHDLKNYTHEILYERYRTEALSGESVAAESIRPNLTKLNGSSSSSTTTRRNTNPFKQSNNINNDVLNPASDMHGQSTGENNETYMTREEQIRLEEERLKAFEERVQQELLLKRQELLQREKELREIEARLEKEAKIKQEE
T1 sequence (P32468 whole entry, chain 2 of 4, the tested form may be a part): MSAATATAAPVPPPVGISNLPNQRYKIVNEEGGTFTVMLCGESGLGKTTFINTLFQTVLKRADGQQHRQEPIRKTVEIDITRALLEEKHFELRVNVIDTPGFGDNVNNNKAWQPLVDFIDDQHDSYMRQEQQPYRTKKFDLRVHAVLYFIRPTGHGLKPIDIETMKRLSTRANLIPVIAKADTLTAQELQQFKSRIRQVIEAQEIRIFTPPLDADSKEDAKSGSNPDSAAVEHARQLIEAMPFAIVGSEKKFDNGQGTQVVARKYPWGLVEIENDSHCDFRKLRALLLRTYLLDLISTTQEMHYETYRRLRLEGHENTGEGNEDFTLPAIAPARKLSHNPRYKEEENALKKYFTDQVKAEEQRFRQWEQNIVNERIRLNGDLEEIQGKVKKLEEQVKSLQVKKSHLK
T1 sequence (P32457 whole entry, chain 3 of 4, the tested form may be a part): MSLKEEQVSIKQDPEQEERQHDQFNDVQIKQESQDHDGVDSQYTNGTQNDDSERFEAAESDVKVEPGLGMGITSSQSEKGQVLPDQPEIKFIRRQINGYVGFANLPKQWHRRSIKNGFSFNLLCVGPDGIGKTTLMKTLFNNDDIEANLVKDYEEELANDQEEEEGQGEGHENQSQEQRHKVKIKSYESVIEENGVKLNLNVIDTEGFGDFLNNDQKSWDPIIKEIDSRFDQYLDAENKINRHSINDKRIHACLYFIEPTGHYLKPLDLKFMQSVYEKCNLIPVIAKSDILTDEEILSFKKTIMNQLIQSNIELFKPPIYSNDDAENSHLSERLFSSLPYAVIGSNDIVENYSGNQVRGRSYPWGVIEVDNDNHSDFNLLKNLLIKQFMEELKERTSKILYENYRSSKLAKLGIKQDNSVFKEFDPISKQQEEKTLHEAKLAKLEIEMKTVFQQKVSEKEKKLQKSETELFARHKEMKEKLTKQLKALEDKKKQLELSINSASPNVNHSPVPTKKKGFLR
T1 sequence (P25342 whole entry, chain 4 of 4, the tested form may be a part): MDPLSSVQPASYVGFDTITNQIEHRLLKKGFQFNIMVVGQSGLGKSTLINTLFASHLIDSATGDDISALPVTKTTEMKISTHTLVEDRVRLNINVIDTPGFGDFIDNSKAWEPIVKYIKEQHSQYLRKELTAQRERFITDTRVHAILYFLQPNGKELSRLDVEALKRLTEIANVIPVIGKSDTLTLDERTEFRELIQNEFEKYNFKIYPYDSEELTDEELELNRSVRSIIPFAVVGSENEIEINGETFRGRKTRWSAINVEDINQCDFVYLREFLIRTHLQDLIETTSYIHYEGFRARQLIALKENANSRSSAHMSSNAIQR

[2] = target: T2, 5-septin complexes/filaments (a mixture of Cdc11-Cdc12[His6]-Cdc3-Cdc10-Cdc10-Cdc3-Cdc12[His6]-Cdc11 and … (S. cerevisiae, UniProt P32458 1-415; Q07657 1-551; P32468 1-407; P32457 1-520; P25342 1-322); test: as above
T2 construct: Cdc11, S. cerevisiae septin, terminal subunit of the Cdc11-capped octamers; Shs1, S. cerevisiae septin, terminal subunit of the Shs1-capped octamers; Cdc12, S. cerevisiae septin; Cdc3, S. cerevisiae septin; Cdc10, S. cerevisiae septin, core subunit; A mixture of two kinds of octamer, each capped by two copies of either Cdc11 or Shs1; polymerised into filaments; also called septin filaments made …

His-SUMO-Elm1(421-640) = target: T3, His-SUMO-Elm1(421-640) (S. cerevisiae, UniProt P32801 421-640); test: pull-down; 3.5 μg GST fusion on glutathione resin with 3.5 μg His6-Sumo-Elm1-C or MBP-Myo1-mTD1; 20 mM MOPS pH 7.0, 1 mM EGTA, 150 mM NaCl, 1 mM DTT, 0.1% NP-40; 1 h; five washes; Coomassie gel and anti-6xHis or anti-MBP blot
T3 construct: Elm1 kinase, S. cerevisiae, residues 421-640 (C-terminal non-kinase domain); Cloned into pET-His6-Sumo-TEV-LIC (Addgene #29659); also called His6-Sumo-Elm1-C; pET-His6-Sumo-Elm1(421-640); source: E. coli Rosetta DE3, purified (His-tag resin, eluted with imidazole); not shown: His6, N-terminal, kept; SUMO, N-terminal, kept
T3 sequence (looked up): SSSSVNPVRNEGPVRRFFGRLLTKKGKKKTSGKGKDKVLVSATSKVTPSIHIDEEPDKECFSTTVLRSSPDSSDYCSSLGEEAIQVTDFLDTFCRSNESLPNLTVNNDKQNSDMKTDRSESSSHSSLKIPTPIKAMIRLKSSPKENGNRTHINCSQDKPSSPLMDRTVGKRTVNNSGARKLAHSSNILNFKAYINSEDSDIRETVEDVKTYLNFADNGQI

binding result [1]: binds
binding result [2]: binds
B1: GST-Bni5-Ext-HR2 (GST-Bni5(306-393)) (domain or fragment, S. cerevisiae, UniProt P53890 306-393, looked up)
chain: QKKMANFETRRPTNPFRVISVSSNSNSRNGSRKSSLNKYDSPVSSPITSASELGSIAKLEKRHDYLSMKCIKLQKEIDYLNKMNAQGS
notes: Bni5, S. cerevisiae, residues 306-393 (Ext plus helical region HR2); also called GST-Ext-HR2; pGEX-4T-1-Bni5(306-393); source: E. coli Rosetta DE3, purified (Glutathione Sepharose 4B); kept on the resin for pull-downs, eluted with glutathione for the septin filament assay; not shown: GST, N-terminal, kept

binding result [1]: binds
binding result [2]: binds
B2: GST-Bni5-Ext-HR2-HR3 (GST-Bni5(306-448)) (domain or fragment, S. cerevisiae, UniProt P53890 306-448, looked up)
chain: QKKMANFETRRPTNPFRVISVSSNSNSRNGSRKSSLNKYDSPVSSPITSASELGSIAKLEKRHDYLSMKCIKLQKEIDYLNKMNAQGSLSMEDGKRLHRAVVKLQEYLDKKTKEKYEVGVLLSRHLRKQIDRGENGQFWIGTK
notes: Bni5, S. cerevisiae, residues 306-448 (Ext, HR2 and HR3); also called GST-Ext-HR2-HR3; pGEX-4T-1-Bni5(306-448); source: E. coli Rosetta DE3, purified (Glutathione Sepharose 4B); kept on the resin for pull-downs, eluted with glutathione for the septin filament assay; not shown: GST, N-terminal, kept
binding result (His-SUMO-Elm1(421-640)): binds
